Experimental data as given in US20190022241A1 (AbbVie / Abbott, published 2019).
Where a chain is given by its changes, count along the chain named.

Experiments:
human SEZ6L2 ECD-His = target: T1, human SEZ6L2 ECD-His (human, UniProt Q6UXD5 28-843); assay: ELISA on plates coated with SEZ6L2 protein
T1 construct: whole entry named

[1] = target: T2, mouse SEZ6 on Neuro2a cells (mouse, UniProt Q7TSK2 20-991); assay: flow cytometry on Neuro2a cells expressing mouse SEZ6
T2 construct: endogenous on Neuro2a cells; also called murine SEZ6; mSEZ6

[2] = target: T3, rat SEZ6 on RIN-m5F cells (rat, UniProt Q7TSK2 20-991 (mouse entry)); assay: flow cytometry on RIN-m5F cells expressing rat SEZ6, verified by BLI or SPR on rat SEZ6-His
T3 construct: endogenous on RIN-m5F cells; also called rSEZ6
T3 chain: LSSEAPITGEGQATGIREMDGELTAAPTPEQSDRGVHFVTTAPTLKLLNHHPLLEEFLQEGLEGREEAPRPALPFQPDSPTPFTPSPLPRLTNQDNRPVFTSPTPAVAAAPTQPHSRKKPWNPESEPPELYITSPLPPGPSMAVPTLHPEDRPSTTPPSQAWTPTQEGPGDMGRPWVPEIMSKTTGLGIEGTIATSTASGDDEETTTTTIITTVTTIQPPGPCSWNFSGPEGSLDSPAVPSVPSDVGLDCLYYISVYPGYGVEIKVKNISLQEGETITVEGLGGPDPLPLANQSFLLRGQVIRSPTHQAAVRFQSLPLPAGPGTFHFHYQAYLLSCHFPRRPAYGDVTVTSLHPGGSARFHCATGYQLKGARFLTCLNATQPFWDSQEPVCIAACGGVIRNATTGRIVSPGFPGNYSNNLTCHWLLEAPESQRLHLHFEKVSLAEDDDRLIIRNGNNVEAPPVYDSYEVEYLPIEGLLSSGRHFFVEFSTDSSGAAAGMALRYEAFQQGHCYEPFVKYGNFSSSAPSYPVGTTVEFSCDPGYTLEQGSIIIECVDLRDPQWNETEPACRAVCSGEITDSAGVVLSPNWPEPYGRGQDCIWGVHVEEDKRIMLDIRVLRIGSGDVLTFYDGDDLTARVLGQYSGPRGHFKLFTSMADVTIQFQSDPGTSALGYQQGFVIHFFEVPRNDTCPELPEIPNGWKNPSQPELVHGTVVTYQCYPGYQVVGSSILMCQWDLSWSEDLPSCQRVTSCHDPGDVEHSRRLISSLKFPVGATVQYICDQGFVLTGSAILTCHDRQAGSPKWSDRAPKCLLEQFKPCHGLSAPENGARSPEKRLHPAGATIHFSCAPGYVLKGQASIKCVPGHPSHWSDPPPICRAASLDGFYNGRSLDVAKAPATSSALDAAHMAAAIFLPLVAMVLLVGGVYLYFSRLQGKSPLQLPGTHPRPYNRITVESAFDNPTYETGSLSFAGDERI

human SEZ6L ECD-His = target: T4, human SEZ6L ECD-His (human, UniProt Q9BYH1 29-955); assay: ELISA on plates coated with SEZ6L protein
T4 construct: whole entry named
T4 sequence: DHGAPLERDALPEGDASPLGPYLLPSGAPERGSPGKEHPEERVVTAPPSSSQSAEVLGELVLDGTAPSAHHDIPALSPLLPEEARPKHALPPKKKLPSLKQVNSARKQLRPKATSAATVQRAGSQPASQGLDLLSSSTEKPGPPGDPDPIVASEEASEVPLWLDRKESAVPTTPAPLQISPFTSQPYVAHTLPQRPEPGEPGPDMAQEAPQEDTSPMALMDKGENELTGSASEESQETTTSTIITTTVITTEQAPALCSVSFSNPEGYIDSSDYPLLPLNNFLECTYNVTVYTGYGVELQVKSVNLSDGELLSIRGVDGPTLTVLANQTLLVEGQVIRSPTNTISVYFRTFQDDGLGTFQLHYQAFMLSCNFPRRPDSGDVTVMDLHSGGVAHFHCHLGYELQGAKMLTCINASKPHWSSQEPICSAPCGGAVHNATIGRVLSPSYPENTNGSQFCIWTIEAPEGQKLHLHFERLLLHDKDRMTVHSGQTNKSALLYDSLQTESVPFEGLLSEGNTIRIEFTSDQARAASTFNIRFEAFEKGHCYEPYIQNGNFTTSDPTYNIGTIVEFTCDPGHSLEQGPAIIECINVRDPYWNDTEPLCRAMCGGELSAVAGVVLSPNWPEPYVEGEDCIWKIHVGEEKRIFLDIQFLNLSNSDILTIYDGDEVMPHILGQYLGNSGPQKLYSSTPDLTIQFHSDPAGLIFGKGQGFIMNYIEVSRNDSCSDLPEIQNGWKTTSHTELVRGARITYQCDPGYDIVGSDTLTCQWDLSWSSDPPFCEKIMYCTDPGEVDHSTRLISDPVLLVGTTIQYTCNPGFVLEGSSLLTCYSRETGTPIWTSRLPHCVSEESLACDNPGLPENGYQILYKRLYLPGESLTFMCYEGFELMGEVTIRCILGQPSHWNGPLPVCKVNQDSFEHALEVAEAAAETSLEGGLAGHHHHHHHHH

hSEZ6-ECD-His [3] = target: T5, hSEZ6-ECD-His (human, UniProt Q53EL9 20-925); assay: bio-layer interferometry (ForteBio RED) or surface plasmon resonance (Biacore 2000) on human SEZ6-His; the table does not say which; column Hu Affinity (Kd, nM)
T5 construct: the whole entry is named; also called recombinant SEZ6-His; human recombinant SEZ6-His

[4] = target: T6, SEZ6 Sushi Domain 1 (amino acids 336-395) on yeast (human, UniProt Q53EL9 355-414); assay: yeast display, flow cytometry;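 note: antibody binding to individual SEZ6 domains displayed on yeast, measured by flow cytometry, antibody at 50 nM purified or hybridoma supernatant diluted 1:2, 90 min on ice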
T6 construct: yeast display

hSEZ6-ECD-His [5] = target: T5, hSEZ6-ECD-His; assay: SPR, Biacore 2000 (data not shown)
[6] = target: T7, SEZ6 N1 (amino acids 1-70) on yeast (human, UniProt Q53EL9 20-89); assay: yeast display, flow cytometry;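 note: antibody binding to individual SEZ6 domains displayed on yeast, measured by flow cytometry, antibody at 50 nM purified or hybridoma supernatant diluted 1:2, 90 min on ice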
T7 construct: yeast display
T7 sequence: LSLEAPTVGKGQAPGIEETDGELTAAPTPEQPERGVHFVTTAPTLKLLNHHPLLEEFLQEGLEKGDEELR

T1 sequence (Q6UXD5 other isoform, or with tags, fused parts or gaps): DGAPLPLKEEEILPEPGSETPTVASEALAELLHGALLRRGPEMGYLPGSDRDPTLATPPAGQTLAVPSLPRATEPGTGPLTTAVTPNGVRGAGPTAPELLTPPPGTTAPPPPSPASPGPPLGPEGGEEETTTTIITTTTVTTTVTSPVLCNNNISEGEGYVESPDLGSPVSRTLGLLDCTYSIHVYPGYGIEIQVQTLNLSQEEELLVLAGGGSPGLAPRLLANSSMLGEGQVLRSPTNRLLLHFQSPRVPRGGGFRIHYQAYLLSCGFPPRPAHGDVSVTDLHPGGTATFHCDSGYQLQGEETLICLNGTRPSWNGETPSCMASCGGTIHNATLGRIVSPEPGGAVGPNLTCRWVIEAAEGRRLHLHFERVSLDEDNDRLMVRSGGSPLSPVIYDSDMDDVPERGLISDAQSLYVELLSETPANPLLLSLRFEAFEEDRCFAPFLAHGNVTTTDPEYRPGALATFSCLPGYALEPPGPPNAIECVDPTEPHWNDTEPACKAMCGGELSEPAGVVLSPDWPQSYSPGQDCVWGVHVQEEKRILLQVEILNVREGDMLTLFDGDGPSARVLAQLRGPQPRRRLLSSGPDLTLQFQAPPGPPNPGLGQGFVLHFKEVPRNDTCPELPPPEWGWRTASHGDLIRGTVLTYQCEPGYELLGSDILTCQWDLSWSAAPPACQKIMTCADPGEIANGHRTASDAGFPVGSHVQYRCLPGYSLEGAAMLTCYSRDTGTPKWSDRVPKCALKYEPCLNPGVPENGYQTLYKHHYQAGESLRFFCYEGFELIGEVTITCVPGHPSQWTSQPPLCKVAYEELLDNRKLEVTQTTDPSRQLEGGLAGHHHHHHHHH

B1: SC17.49 (antibody, V domains shown)
VH: QVQLQQSGAELVRPGASVTLSCKASGYTFTDYEMHWVKQTPVHGLEWIGGIDPETGGTAYNQKFKGKATLTADKSSSTAYMELRSLTSEDSAVYFCTRWFSYWGPGTLVTVSA
VL: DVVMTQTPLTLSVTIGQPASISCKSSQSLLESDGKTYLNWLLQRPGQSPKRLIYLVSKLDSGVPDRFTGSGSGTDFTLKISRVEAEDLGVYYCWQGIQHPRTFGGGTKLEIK
notes: murine mAb
Human SEZ6L2 ECD-His
  binding result: no binding (tested: 1 µg/mL)
[1]
  binding result: no binding (tested: 5 µg/mL)
[2]
  binding result: no binding (tested: 5 µg/mL)
Human SEZ6L ECD-His
  binding result: no binding (tested: 1 µg/mL)
hSEZ6-ECD-His [3]
  Kd: 23.1 nM

B2: SC17.82 (antibody, V domains shown)
VH: EVQLQQSGPELVKPGASVKMSCKASGYTFTDSYMNWVKQSHGKSLEWIGRVNPNNGGASYNHKFKGKATLTVDKSLSTAYMRLNSLTSEDSAVYYCSRSGDLYYYAMDYWGQGTSVTVSS
VL: QIVLTQSPAIMSASLGEEITLTCSASSSVSYMHWYQQKSGTSPKLLIYSTSNLASGVPSRFSGSGSGTFYSLTISSVEAEDAADYYCHQWSSFTFGSGTKLEIK
notes: murine mAb
[4]
  binding result: binds

B3: hSC17.46 (antibody, human IgG1, V domains shown)
VH: QVQLVQSGAEVKKPGASVKVSCKASGYTFTSYWINWVRQAPGQGLEWIGNIFPDTTTTNYNEKFKGRVTLTRDTSISTAYMELSRLRSDDTAVYYCAREYYDGTYDAMDYWGQGTLVTVSS
VL: AIQMTQSPSSLSASVGDRVTITCKASQSVNNDVAWYQQKPGKAPKLLIYYASNRYTGVPSRFSGSGSGTDFTLTISSLQPEDFATYFCQQDYSSPRTFGQGTKLEIK
notes: humanized, human IgG1/kappa
hSEZ6-ECD-His [5]
  binding result: binds

B4: hSC17.34 (antibody, human IgG1, V domains shown)
VH: QVQLVQSGAEVKKPGASVKVSCKASGYTFTDYNMDWVRQAPGQRLEWIGYIYPDNGGAGYNQKFKGRVTITVDTSASTAYMELSSLRSEDTAVYYCSRSITTAWFAYWGQGTLVTVSS
VL: DIQMTQSPSSLSASVGDRVTITCKASQDINSYLSWFQQKPGKAPKSLIYRANRLVDGVPSRFSGSGSGTDYTLTISSLQPEDFATYYCLQYDEFPPTFGQGTKLEIK
notes: humanized, human IgG1/kappa
hSEZ6-ECD-His [5]
  binding result: binds

B5: SC17.187 (antibody, V domains shown)
VH: EVHLQQSGPELVNPGSSVKISCKAAGYTFTDYNMDWVKQSHGKRLEWIGNIYPNNGGAGYNQNFKDKATLTVDKSSSTAYMELRSLTSEDSAVYYCARSITAAWFAYWGQGTLVTVSA
VL: DIKMTQSPSSMYASLGERVTLTCKASQDINSYLSWFQQKPGKSPETLIYRANRLIDGVPSRFSGSGSGQDYSLTISSLEYEDMGIYYCLQYDEFPPTFGGGTKLEIK
notes: murine mAb
[4]
  binding result: binds

B6: SC17.4 (antibody, V domains shown)
VH: QIQLVQSGPELKKPGETVKISCKASGYTFTDYSMHWVKQAPGKGLKWLGWINTETGEPTYSEDFKGRFAFSLETSASTAYLQINNLKNEDTATYFCVKNKGWFAYWGQGTLVTVSA
VL: B5 VL with L21I, S34T, E45K, E79D, E93D, P96W
notes: murine mAb
Human SEZ6L2 ECD-His
  binding result: no binding (tested: 1 µg/mL)
[1]
  binding result: no binding (tested: 5 µg/mL)
[6]
  binding result: binds
[2]
  binding result: no binding (tested: 5 µg/mL)
Human SEZ6L ECD-His
  binding result: no binding (tested: 1 µg/mL)

B7: SC17.87 (antibody, V domains shown)
VH: EVQLQQSGAELLKPGASVKLSCTASGLNIKDYYIHWVYQRPEQGLEWIGRIDPESDNTLYDPKFQGKASITADTSSNTAYLQLSSLTSEDTAVYYCTTNTPFAYWGQGTLVTVST
VL: DVVMTQTPLSLPVSLGDQASISCRSSQSLVHSNGNTYLHWYLQKPGQSPKLLISKVSNRFSGVPDRFSGSGSGTDFTLKISRVEAEDLGVYFCSQSTHVPPMFGGGTRLEIK
notes: murine mAb
[4]
  binding result: binds

B8: SC17.97 (antibody, V domains shown)
VH: QVQLPQSGAELAKPGASVKISCKASGFTFTSYWMHWVKQRPGQGLEWIGYINPSTDYTEYNQKFKDKATLTADKSSSTAYMQLGSLTSEDSAVYYCARSSYGSSPFDYWGQGSTLTVSS
VL: B7 VL with S32N, K50N, S54Y, R82I, V90L, P101R, M102T, R108K
notes: murine mAb
[4]
  binding result: binds

B9: hSC17.16 (antibody, human IgG1, V domains shown)
VH: QVQLVQSGAEVKKPGASVKVSCKASGYTFTDYNMYWVRQAPGQGLEWMGEINPNNGGTAYNQKFRGKVTMTRDTSISTAYMELSRLRSDDTAVYYCARYDKGFDYWGQGTTVTVSS
VL: DIQMTQSPSSLSASVGDRVTITCRASANINSNLVWYQQKPGKAPKLLIYAATNLADGVPSRFSGSGSGTDFTLTISSLQPEDFATYYCQHFWGTPRTFGGGTKLEIK
notes: humanized; human IgG1 heavy and human kappa light constant regions
hSEZ6-ECD-His [5]
  binding result: binds

B10: hSC17.28 (antibody, human IgG1, V domains shown)
VH: QVQLVQSGAEVKKPGASVKVSCKASGYTFTRSYIHWVRQAPGQGLEWMGYISSGSGGTTYNQKFKGRVTSTRDTSISTAYMELSRLRSDDTAVYYCARGGVRYFDVWGQGTTVTVSS
VL: EIVLTQSPDFQSVTPKEKVTITCRASQSIGTSIHWYQQKPDQSPKLLIKYASESISGVPSRFSGSGSGTDFTLTINSLEAEDAATYYCQQSNSWPLTFGQGTKLEIK
notes: humanized, human IgG1/kappa
hSEZ6-ECD-His [5]
  binding result: binds

B11: SC17.200 (antibody, V domains shown)
VH: QVQLQQSGPELVKPGASVKISCKASGYAFSSSWINWVKQRPGQGLEWIGRIYPGEGDTNYSGNFEGKATLTADKSSTTAYMQLSSLTSVDSAVYFCTRGLVMDYWGQGTALTVSS
VL: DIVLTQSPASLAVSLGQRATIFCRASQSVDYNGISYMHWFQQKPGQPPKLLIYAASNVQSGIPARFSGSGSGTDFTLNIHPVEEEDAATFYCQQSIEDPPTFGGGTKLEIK
notes: murine mAb
[4]
  binding result: binds

B12: SC17.45 (antibody, V domains shown)
VH: QVQLQQPGSVLVRPGDSVKLSCKASGYTFTSYWMHWVKQSPGQGLEWIGEIHPHSGSTNYNEKFKGKATLTVDTSSSTAYVDLSSLTSEDSAVYYCVGGHYDYWGQGTTLTVSS
VL: ENVLTQSPAIMSASPGEKVTMTCSASSSVNYMYWYQQKSSTSPKLWIYDTSKLTSGVPGRFSGSGSGNSYSLTISNMEAEDVATYYCFQGSGYPLTFGSGTKLEIK
notes: murine mAb
Human SEZ6L2 ECD-His
  binding result: no binding (tested: 1 µg/mL)
[1]
  binding result: no binding (tested: 5 µg/mL)
[2]
  binding result: no binding (tested: 5 µg/mL)
Human SEZ6L ECD-His
  binding result: no binding (tested: 1 µg/mL)
hSEZ6-ECD-His [3]
  Kd: 17.4 nM

B13: hSC17.17 (antibody, human IgG1, V domains shown)
VH: QVQLVQSGAEVKKPGASVKVSCKASGYTFTDYNMHWVRQAPGQGLEWMGEINPNIGGTGYNQKFKGRVTMTRDTSISTAYMELSRLRSDDTAVYYCARTYSYYSYEFAYWGQGTLVTVSS
VL: EIVLTQSPATLSLSPGERATLSCSASSSVSYMHWYQQKPGQAPRLLIYDTSKLPSGIPARFSGSGSGTDFTLTISSLEPEDFAVYYCQQWSSTPPTFGQGTKLEIK
notes: humanized, human IgG1/kappa
hSEZ6-ECD-His [5]
  binding result: binds
